Measured values published in patent US20180066015A1, “INHIBITORS OF GROWTH FACTOR ACTIVATION ENZYMES” (Washington University, published 2018).
Like-named read-outs stand apart in the source and are kept apart here. *: point of attachment. ketothiazole = C-terminal ketothiazole (kt), c1csc(*)n1; Kbt = ketobenzothiazole, c1ccc2sc(*)nc2c1; kt = C-terminal ketothiazole, c1csc(*)n1

T1: matriptase (Charles Craik, UCSF), recombinant (Homo sapiens (Human)) (UniProt Q9Y5Y6)
T1 sequence: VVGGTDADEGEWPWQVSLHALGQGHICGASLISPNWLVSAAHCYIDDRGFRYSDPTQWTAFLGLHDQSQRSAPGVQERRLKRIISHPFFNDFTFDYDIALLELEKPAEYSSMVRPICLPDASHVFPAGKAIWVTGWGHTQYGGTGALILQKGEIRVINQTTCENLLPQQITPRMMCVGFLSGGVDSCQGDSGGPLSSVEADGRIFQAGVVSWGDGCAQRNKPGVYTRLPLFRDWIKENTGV

T2: matriptase (Charles Craik, UCSF), recombinant (Homo sapiens (Human), UniProt Q9Y5Y6)
T2 sequence: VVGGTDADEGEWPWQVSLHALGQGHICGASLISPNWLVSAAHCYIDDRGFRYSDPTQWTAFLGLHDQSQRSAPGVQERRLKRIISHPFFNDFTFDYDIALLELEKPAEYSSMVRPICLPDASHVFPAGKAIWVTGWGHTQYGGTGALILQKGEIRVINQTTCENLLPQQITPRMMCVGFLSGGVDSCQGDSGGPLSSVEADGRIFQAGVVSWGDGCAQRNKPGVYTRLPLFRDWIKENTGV

T3: Boc-QAR-AMC
T3 sequence (peptide, N-terminal Boc; C-terminal AMC): QAR


Legend:
[1] = target: Hepatocyte Growth Factor Activator (HGFA) serine protease domain, N-terminal His-tag, recombinant (Homo sapiens (Human)) (UniProt Q04756); assay: fluorogenic inhibition assay
[2] = target: Hepatocyte Growth Factor Activator (HGFA) serine protease domain, N-terminal His-tag, recombinant (Homo sapiens (Human)) (UniProt Q04756)
[3] = target: recombinant thrombin; assay: chromogenic inhibition assay
[4] = target: Factor Xa; assay: chromogenic inhibition assay
[5] = target: Recombinant human hepsin (4776-SE-010, R&D Systems), activated (human) (UniProt P05981)
[6] = target: T1, matriptase (Charles Craik, UCSF), recombinant (Homo sapiens (Human))
[7] = target: T2, matriptase (Charles Craik, UCSF), …; assay: fluorogenic inhibition assay
Experimental: (§1) Inhibitors (11-pt serial dilutions, 0-20 μM final concentration in reaction) were serially diluted in DMSO (2% DMSO final concentration) and then mixed with either recombinant serine protease domain of HGFA [Z. Han, P. K. Harris, D. E. Jones, R. Chugani, T. Kim, M. Agarwal, W. Shen, S. A. Wildman, J. W. Janetka, Acs Med Chem Lett 2014, 5, 1219-1224], matriptase (Charles Craik, UCSF) or hepsin* (#4776-SE-010, R&D Systems, Minneapolis, Minn.) in black 384 well plates (Corning #3575. Corning, N.Y.). […] The final substrate concentrations for all assays were at the Kₘ for the respective enzymes. Changes in fluorescence (excitation at 380 nm and emission at 460 nm) were measured at room temperature over time in a Biotek Synergy 2 plate reader (Winnoski, Vt.). Using GraphPad Prism version 6.04 software program, (GraphPad Software, San Diego, Calif., www.graphpad.com), a four parameter curve fit was used to determine the inhibitor IC₅₀s from a plot of the mean reaction velocity versus the inhibitor concentration. The IC₅₀ values represent the average of three separate experimental determinations.

[8] = target: T4, Recombinant human hepsin (4776-SE-010, R&D Systems), activated (human, UniProt P05981); assay: fluorogenic inhibition assay
Experimental: as §1

[9] = target: T3, Boc-QAR-AMC
[10] = target: Trypsin; assay: selectivity inhibition assay
[11] = target: recombinant thrombin; assay: selectivity inhibition assay
[12] = target: Factor Xa; assay: selectivity inhibition assay
[13] = target: Hepatocyte Growth Factor Activator (HGFA) serine protease domain, N-terminal His-tag, recombinant (Homo sapiens (Human)) (UniProt Q04756); assay: fluorogenic inhibition assay; remark: listed apart in the source
[14] = target: T2, matriptase (Charles Craik, UCSF), …; assay: fluorogenic inhibition assay; remark: listed apart in the source
Experimental: as §1
(§2) Fluorescent inhibitor and chromogenic proteolytic assays were performed in general accordance with the procedures described in Example 4 for compounds prepared in Examples 5 and 6.

[15] = target: T4, Recombinant human hepsin (4776-SE-010, …); assay: fluorogenic inhibition assay; remark: listed apart in the source
Experimental: as §1, §2

Row | Molecule | Ki [1] | IC50 of enzyme inhibition [2] | Ki [3] | Ki [4] | IC50 of enzyme inhibition [5] | IC50 of enzyme inhibition [6] | Ki [7] | Ki [8] | Km of fluorogenic substrate [9] | Ki [10] | Ki [11] | Ki [12] | fold change of potency against thiazole 5 [13] | Ki [14] | Ki [15]
1 | Ac-KQFR(SEQ ID NO: 4)-kt (peptide) | 58 nM | 470 nM | > 20000 nM | 78.8 nM | – | – | – | – | – | – | – | – | – | – | –
2 | Ac-WRLR-kt (SMILES CC(=O)N[C@@H](Cc1c[nH]c2ccccc12)C(=O)N[C@@H](CCCNC(=N)N)C(=O)N[C@@H](CC(C)C)C(=O)N[C@@H](CCCNC(=N)N)C(=O)c1nccs1) [Ac-WRLR(SEQ ID NO: 9)-kt] | 21 nM | 275 nM | – | – | 0.3 nM | 31 nM | 5.5 nM | 0.21 nM | – | – | – | – | – | – | –
3 | Ac-KFLR-ketothiazole (SMILES CC(=O)N[C@@H](CCCCN)C(=O)N[C@@H](Cc1ccccc1)C(=O)N[C@@H](CC(C)C)C(=O)N[C@@H](CCCNC(=N)N)C(=O)c1nccs1) [Ac-KFLR(SEQ ID NO: 5)-kt] | 80 nM | 330 nM | – | – | 22 nM | 35 nM | – | – | – | – | – | – | – | – | –
4 | Ac-RKLR-kt (SMILES CC(=O)N[C@@H](CCCNC(=N)N)C(=O)N[C@@H](CCCCN)C(=O)N[C@@H](CC(C)C)C(=O)N[C@@H](CCCNC(=N)N)C(=O)c1nccs1) [Ac-RKLR(SEQ ID NO: 18)-kt] | 17 nM | 370 nM | – | – | – | – | 0.83 nM | 0.47 nM | – | – | – | – | – | – | –
5 | matriptase (Charles Craik, UCSF), recombinant (enzyme) VVGGTDADEGEWPWQVSLHALGQGHICGASLISPNWLVSAAHCYIDDRGFRYSDPTQWTAFLGLHDQSQRSAPGVQERRLKRIISHPFFNDFTFDYDIALLELEKPAEYSSMVRPICLPDASHVFPAGKAIWVTGWGHTQYGGTGALILQKGEIRVINQTTCENLLPQQITPRMMCVGFLSGGVDSCQGDSGGPLSSVEADGRIFQAGVVSWGDGCAQRNKPGVYTRLPLFRDWIKENTGV | – | – | – | – | – | – | – | – | 93 µM | – | – | – | – | – | –
6 | Ac-WKLR-kt (SMILES CC(=O)N[C@@H](Cc1c[nH]c2ccccc12)C(=O)N[C@@H](CCCCN)C(=O)N[C@@H](CC(C)C)C(=O)N[C@@H](CCCNC(=N)N)C(=O)c1nccs1) [Ac-WKLR(SEQ ID NO: 12)-kt] | 56 nM | 320 nM | – | – | 4 nM | 97 nM | 8.6 nM | 0.55 nM | – | – | – | – | – | – | –
7 | Ac-SHLR-kt (SMILES CC(=O)N[C@@H](CO)C(=O)N[C@@H](Cc1c[nH]cn1)C(=O)N[C@@H](CC(C)C)C(=O)N[C@@H](CCCNC(=N)N)C(=O)c1nccs1) [Ac-SHLR(SEQ ID NO: 11)-kt] | 332 nM | 1800 nM | – | – | 5 nM | 560 nM | 104 nM | 0.6 nM | – | – | – | – | – | – | –
8 | Ac-SRLR-kt (SMILES CC(=O)N[C@@H](CO)C(=O)N[C@@H](CCCNC(=N)N)C(=O)N[C@@H](CC(C)C)C(=O)N[C@@H](CCCNC(=N)N)C(=O)c1nccs1) [Ac-SRLR(SEQ ID NO: 15)-kt] | 24 nM | 303 nM | – | – | 5 nM | 24 nM | 5.8 nM | 0.68 nM | – | – | – | – | – | – | –
9 | Ac-WQLR-kt (SMILES CC(=O)N[C@@H](Cc1c[nH]c2ccccc12)C(=O)N[C@@H](CCC(N)=O)C(=O)N[C@@H](CC(C)C)C(=O)N[C@@H](CCCNC(=N)N)C(=O)c1nccs1) [Ac-WQLR(SEQ ID NO: 3)-kt] | 65 nM | 471 nM | – | – | 1 nM | 49 nM | 32.4 nM | 0.21 nM | – | – | – | – | – | – | –
10 | Ac-SKFR-kt (SMILES CC(=O)N[C@@H](CO)C(=O)N[C@@H](CCCCN)C(=O)N[C@@H](Cc1ccccc1)C(=O)N[C@@H](CCCNC(=N)N)C(=O)c1nccs1) [Ac-SKFR(SEQ ID NO: 13)-kt] | 57 nM | 520 nM | > 2000 nM | 530 nM | 51 nM | 34 nM | 3.03 nM | 8.5 nM | – | – | – | – | – | – | –
11 | Ac-SKLR-kt (SMILES CC(=O)N[C@@H](CO)C(=O)N[C@@H](CCCCN)C(=O)N[C@@H](CC(C)C)C(=O)N[C@@H](CCCNC(=N)N)C(=O)c1nccs1) [Ac-SKLR(SEQ ID NO: 10)-kt] | 81 nM | 560 nM | > 20000 nM | 3060 nM | – | 48 nM | 58 nM | 1.2 nM | – | – | – | – | – | – | –
12 | Ac-KQLR-Kbt (SMILES CC(=O)N[C@@H](CCCCN)C(=O)N[C@@H](CCC(N)=O)C(=O)N[C@@H](CC(C)C)C(=O)N[C@@H](CCCNC(=N)N)C(=O)c1nc2ccccc2s1) [Ac-KQLR(SEQ ID NO: 1)-Kbt] | 30 nM | – | – | – | – | – | – | – | – | 0.24 nM | > 20000 nM | 129 nM | 2 fold | 0.55 nM | 0.09 nM
13 | LLR (N-terminal acetyl; C-terminus printed as -H) [Leupeptin (Ac-LLR-H)] | 188 nM | 535 nM | – | – | 256 nM | 1150 nM | 696 nM | 61 nM | – | – | – | – | – | – | –
14 | Ac-RQLR-kt (SMILES CC(=O)N[C@@H](CCCNC(=N)N)C(=O)N[C@@H](CCC(N)=O)C(=O)N[C@@H](CC(C)C)C(=O)N[C@@H](CCCNC(=N)N)C(=O)c1nccs1) [Ac-RQLR(SEQ ID NO: 6)-kt] | 60 nM | 270 nM | > 20000 nM | 8.1 nM | 1 nM | 1 nM | 0.32 nM | 0.28 nM | – | – | – | – | – | – | –
